Experimental findings from patent US20240018255A1 are described below.

For experiment [1], the target named is SIRPα V2 fusion Fc (mouse IgG2a) (human; mouse). The experiment in a line: ELISA, plate coated with SIRPα V2-Fc (mouse IgG2a), anti-hFab secondary, OD450; fit value of a flat curve, see non_binding. (An ELISA detects its analyte on a solid surface through an enzyme-linked reagent.)
The target in experiment [2] is SIRPα V4 fusion Fc (mouse IgG2a) (human; mouse). The experiment in a line: ELISA, plate coated with SIRPα V4-Fc (mouse IgG2a), anti-hFab secondary, OD450.
SIRPα V4 fusion Fc (mouse IgG2a) (human; mouse), sequence (chain, as listed by the source limits assumed): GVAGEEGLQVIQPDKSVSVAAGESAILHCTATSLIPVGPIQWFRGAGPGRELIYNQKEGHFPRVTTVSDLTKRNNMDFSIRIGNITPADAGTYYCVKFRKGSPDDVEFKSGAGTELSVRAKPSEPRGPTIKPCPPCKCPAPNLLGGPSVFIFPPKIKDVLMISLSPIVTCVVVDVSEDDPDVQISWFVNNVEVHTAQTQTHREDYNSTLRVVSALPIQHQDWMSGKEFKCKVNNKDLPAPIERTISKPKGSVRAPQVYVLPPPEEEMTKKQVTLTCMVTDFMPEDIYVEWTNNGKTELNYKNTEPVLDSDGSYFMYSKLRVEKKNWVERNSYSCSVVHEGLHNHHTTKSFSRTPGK
Experiment [3] deals with SIRPα V1 fusion Fc (mouse IgG2a) (human; mouse). The experiment in a line: ELISA, plate coated with SIRPα V1-Fc (mouse IgG2a), anti-hFab secondary, OD450; unit from the axis Log(Conc.(nM)).
SIRPα V1 fusion Fc (mouse IgG2a) (human; mouse), sequence (chain, as listed by the source limits assumed): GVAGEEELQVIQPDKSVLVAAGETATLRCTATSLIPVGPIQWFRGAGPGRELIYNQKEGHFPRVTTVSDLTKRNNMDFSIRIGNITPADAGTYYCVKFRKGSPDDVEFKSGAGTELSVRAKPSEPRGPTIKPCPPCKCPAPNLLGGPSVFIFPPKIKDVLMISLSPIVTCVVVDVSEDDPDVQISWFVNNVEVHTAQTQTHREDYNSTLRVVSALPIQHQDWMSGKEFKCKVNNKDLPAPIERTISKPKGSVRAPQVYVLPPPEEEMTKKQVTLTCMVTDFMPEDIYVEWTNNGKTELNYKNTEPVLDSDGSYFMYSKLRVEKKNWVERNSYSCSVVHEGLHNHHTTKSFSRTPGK
Experiment [4] deals with SIRPα V9 fusion Fc (mouse IgG2a) (human; mouse). The experiment in a line: ELISA, plate coated with SIRPα V9-Fc (mouse IgG2a), anti-hFab secondary, OD450.
SIRPα V9 fusion Fc (mouse IgG2a) (human; mouse), sequence (chain, as listed by the source limits assumed): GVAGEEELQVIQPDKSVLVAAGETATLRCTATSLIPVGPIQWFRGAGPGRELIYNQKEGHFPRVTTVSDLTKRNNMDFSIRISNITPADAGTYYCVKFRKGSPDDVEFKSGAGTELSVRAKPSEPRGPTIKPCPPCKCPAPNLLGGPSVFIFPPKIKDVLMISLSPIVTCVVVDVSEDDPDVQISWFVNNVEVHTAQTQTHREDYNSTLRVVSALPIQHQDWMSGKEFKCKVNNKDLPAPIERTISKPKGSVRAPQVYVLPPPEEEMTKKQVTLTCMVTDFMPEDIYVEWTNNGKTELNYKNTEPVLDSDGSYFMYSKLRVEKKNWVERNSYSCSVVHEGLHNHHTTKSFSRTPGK
Experiment [5] has as its target SIRPα V10 fusion Fc (mouse IgG2a) (human; mouse). Briefly: ELISA, plate coated with SIRPα V10-Fc (mouse IgG2a), anti-hFab secondary, OD450; fit value of a flat curve, see non_binding.
Experiment [6] addresses SIRPα V6 fusion Fc (mouse IgG2a) (human; mouse). Briefly: ELISA, plate coated with SIRPα V6-Fc (mouse IgG2a), anti-hFab secondary, OD450.
In experiment [7] the target is SIRPα V5 fusion Fc (mouse IgG2a) (human; mouse). Briefly: ELISA, plate coated with SIRPα V5-Fc (mouse IgG2a), anti-hFab secondary, OD450; unit from the axis Log(Conc.(nM)).
SIRPα V5 fusion Fc (mouse IgG2a) (human; mouse), sequence (chain, as listed by the source limits assumed): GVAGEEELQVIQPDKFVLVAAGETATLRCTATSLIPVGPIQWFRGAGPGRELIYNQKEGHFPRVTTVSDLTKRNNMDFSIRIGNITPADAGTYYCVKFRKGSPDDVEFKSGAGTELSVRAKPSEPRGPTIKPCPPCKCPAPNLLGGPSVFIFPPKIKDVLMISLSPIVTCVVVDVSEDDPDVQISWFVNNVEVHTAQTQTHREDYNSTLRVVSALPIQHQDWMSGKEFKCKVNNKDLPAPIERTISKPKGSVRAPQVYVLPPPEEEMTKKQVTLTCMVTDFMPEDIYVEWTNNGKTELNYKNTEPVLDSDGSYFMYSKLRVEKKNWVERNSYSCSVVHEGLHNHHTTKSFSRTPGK

SIRPα V6 fusion Fc (mouse IgG2a) (human; mouse), sequence (chain, as listed by the source limits assumed): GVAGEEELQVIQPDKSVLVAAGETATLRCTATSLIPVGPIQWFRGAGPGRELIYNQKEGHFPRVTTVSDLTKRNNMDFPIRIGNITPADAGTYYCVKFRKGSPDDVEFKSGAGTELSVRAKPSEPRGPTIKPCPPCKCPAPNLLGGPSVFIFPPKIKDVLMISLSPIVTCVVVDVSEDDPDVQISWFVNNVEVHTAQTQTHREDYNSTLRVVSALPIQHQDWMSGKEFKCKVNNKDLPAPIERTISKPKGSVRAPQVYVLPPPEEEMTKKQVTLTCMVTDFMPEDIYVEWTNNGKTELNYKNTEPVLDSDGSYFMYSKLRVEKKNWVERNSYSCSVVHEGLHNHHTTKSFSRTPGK
SIRPα V2 fusion Fc (mouse IgG2a) (human; mouse), sequence (chain, as listed by the source limits assumed): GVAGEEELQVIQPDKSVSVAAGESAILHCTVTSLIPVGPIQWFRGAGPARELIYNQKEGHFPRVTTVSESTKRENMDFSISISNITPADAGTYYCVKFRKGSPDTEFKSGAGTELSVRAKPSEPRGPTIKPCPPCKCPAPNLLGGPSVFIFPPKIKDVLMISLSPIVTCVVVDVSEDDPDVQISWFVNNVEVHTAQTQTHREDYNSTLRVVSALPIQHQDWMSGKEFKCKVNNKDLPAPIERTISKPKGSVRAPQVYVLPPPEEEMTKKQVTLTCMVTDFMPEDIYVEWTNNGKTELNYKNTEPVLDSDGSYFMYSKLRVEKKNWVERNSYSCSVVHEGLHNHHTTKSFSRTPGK
SIRPα V10 fusion Fc (mouse IgG2a) (human; mouse), sequence (chain, as listed by the source limits assumed): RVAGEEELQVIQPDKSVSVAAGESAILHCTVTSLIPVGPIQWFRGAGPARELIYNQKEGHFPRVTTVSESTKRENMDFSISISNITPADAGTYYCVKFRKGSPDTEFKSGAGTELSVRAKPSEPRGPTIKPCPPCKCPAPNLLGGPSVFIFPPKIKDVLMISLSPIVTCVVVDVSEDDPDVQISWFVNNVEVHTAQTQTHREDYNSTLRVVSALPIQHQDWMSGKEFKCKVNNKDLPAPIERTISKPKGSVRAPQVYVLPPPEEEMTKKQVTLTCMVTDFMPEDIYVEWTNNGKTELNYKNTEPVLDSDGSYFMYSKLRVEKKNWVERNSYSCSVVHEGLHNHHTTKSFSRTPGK

B1: anti-SIRPα antibody 18D5 of OSE Company (antibody, from a related filing, V domains shown)
VH: QVQLQQPGAELVRPGSSVKLSCKASGYTFTSYWVHWVKQRPIQGLEWIGNIDPSDSDTHYNQKFKDKASLTVDKSSSTAYMQLSSLTFEDSAVYYCVRGGTGTMAWFAYWGQGTLVTVSA
VL: DVVMTQTPLSLPVSLGDQASISCRSSQSLVHSYGNTYLYWYLQKPGQSPKLLIYRVSNRFSGVPDRFSGSGSGTDFTLKISRVEAEDLGVYFCFQGTHVPYTFGSGTKLEIKR
What is called EC50 is the concentration needed to bring the measured effect to its halfway point. A higher EC50 goes with lower potency in that assay. A word on the EC50 (read off the curve): it is the concentration at which the effect is half-maximal. A low value points to greater potency. Regarding B1, the EC50 stood at 0.0554 nM in experiment [1], 0.154 nM in experiment [3], 0.0554 nM in experiment [5] and 0.13 nM in experiment [7]. In addition, the EC50 (read off the curve) in experiment [2] came out at 0.1 nM; in experiment [4] it was 0.2 nM; in experiment [6] it was 0.1 nM.
